# Results taken from patent US10487337B2, “Methods for monocot plant improvement” (Agresearch Limited, priority 2014, dated 2019).
# T1: BZR1 (Arabidopsis thaliana, UniProt Q8S307)
# T1 construct: expressed in transfected cells; host or cells: yeast strain MaV203
# T1 sequence (Q8S307 with tags, fused parts or gaps): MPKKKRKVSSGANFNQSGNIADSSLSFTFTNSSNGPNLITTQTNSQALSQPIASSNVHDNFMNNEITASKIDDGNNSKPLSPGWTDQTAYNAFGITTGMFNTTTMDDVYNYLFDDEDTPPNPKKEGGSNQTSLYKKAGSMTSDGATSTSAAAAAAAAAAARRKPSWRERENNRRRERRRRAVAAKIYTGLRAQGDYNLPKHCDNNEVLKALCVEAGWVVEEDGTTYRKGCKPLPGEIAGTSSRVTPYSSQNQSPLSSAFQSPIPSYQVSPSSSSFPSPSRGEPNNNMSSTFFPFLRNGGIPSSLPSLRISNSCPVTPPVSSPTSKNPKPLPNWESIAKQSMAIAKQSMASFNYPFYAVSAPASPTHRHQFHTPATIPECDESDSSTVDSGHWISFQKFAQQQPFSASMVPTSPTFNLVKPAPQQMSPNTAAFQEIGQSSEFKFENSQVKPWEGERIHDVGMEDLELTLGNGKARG
# B1: PPD1: PEAPOD 1 protein of Arabidopsis thaliana, SEQ ID NO: 1 (protein, listed as Arabidopsis thaliana)
# chain: MDVGVSPAKSILAKPLKLLTEEDISQLTREDCRKFLKDKGMRRPSWNKSQAIQQVLSLKALYEPGDDSGAGIFRKILVSQPVNPPRVTTTLIEPSNELEACGRVSYPEDNGACHRMDSPRSAEFSGGSGHFVSEKDGHKTTISPRSPAETSELVGQMTIFYSGKVNVYDGIPPEKARSIMHFAANPIDLPENGIFASSRMISKLISKEKMMELPQKGLEKANSSRDSGMEGQANRKVSLQRYREKRKDRKFSKAKKCPGVASSSLEMFLNCQPRMKAAYSQNLGCTGSPLHSQSPESQTKSPNLSVDLNSEGI
# Key:
# ryegrass plants = assay: Leaf biomass analysis of grass transformants; assay type: in vivo; details: observed leaf growth, approximately 6 weeks
# Protocol: (§1) An equal number (typically 4-10) of tillers were taken from WT and ryegrass plants transformed with Arabidopsis PPD under one of two green tissue promoters. Tillers were planted into plastic grow bags containing potting mix and pruned to be of equal height. […] The increase in leaf/shoot biomass can be quantified removing the attached above ground portion (leaves and shoots) and drying them at 65° C. for 48 hr then weighing the dry weights.
# as §1, with “a constitutive promoter.” for “one of two green tissue promoters.”, “was” for “can be”, “weights (Table 2).” for “weights.”
# BZR1 = molecular target: T1, BZR1; assay: Yeast two hybrid (Y2H) interaction with BZR1; assay type: binding
# From the text: The constructs for Y2H and BiFC assays were generated as follows. Arabidopsis DNA sequences encoding the open reading frames for; At4g14713 (PPD1) and truncation and deletion derivatives of PPD1: PPD1; PPD1Δppd (N-terminal truncation of sequences encoding aa 1-61), PPD1Δtify, (internal deletion of sequences encoding aa 154-186), PPD1Δjas*(C-terminal truncation of sequences encoding aa 229-313) (FIG. 5), At4g28910 (NINJA), At1g15750 (TPL), At1g75080 (BZR1), a synthetic PUAS-35S promoter, and sequences encoding GAL4DBD and c-myc fusion proteins were synthesised and sequence verified by GeneArt. Most sequences were supplied as clones in pENTR221 ready for Gateway cloning into yeast and plant expression vectors. The exception, a promoter sequence for in planta transcription activation assays, incorporating 5′ Xho1 and 3′ Nco1 restriction enzyme sites, was supplied cloned in pMA-RQ. Plasmids for the transient LUC reporter assay: A synthetic promoter with 5×UAS GAL4 DNA binding sites upstream of a −105 bp CaMV35S promoter was cloned into the XhoI-NcoI sites within a dual luciferase construct pNWA62, which contains an intron-containing Firefly Luciferase gene (LUC) and 35Spro::Renilla Luciferase (REN) as an internal standard, to construct pAML7. […]
molecule,measurement,setting,value
B1,leaf biomass/growth/length/branching compared to WT plants,ryegrass plants; constitutive promoter,increase in leaf biomass/growth/length/branching
same,leaf biomass/growth/length/branching compared to WT plants,ryegrass plants; green tissue promoter,increase in leaf biomass/growth/length/branching
same,interaction with BZR1,BZR1,no direct interaction
